Test results from US20240301052A1 (LANOVA MEDICINES DEVELOPMENT, published 2024).
Each block holds one binder with its values, some of them ahead of it.

How the values were obtained:
[1] = biological target: T1, human SLC34A2 (human, UniProt O95436 1-690); assay: FACS, HEK293/human SLC34A2 cells
T1 construct: whole, on cells; also called human solute carrier 34 A2; NaPi2b
T1 sequence (looked up): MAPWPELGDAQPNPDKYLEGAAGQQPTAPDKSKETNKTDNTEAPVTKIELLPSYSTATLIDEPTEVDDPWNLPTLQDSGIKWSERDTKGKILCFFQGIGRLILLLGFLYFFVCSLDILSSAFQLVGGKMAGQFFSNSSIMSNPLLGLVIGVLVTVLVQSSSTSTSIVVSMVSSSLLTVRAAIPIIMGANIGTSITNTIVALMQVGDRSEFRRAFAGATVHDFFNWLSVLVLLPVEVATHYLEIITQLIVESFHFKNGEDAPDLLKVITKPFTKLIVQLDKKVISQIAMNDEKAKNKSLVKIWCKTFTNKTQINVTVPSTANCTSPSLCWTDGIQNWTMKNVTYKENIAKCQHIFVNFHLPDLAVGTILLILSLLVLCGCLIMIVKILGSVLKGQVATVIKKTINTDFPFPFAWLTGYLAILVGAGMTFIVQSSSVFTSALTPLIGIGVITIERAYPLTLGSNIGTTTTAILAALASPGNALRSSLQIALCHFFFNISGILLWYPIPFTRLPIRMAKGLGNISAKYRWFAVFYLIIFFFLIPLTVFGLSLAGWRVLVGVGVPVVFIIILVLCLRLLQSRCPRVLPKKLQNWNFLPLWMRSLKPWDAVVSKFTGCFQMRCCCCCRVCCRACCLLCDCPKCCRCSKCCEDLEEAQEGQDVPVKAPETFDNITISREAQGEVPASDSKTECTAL
Description: (§1) Briefly, OVCAR3 cells or HEK293 cells expressing human SLC34A2 were incubated with chimeric antibodies (from 200 nM, 4 folds dilution, 8 points). After incubation at 4° C. for 60 minutes, the cells were washed with FACS buffer twice, then stained with fluorescent conjugated secondary antibody at 4° C. for 30 minutes. After that the cells were washed twice and analyzed by flow cytometry.

[2] = biological target: T2, Rhesus SLC34A2 (Rhesus, UniProt F7HDA3 1-690); assay: FACS, HEK293/Rhesus SLC34A2 cells
T2 construct: whole, on cells
T2 sequence: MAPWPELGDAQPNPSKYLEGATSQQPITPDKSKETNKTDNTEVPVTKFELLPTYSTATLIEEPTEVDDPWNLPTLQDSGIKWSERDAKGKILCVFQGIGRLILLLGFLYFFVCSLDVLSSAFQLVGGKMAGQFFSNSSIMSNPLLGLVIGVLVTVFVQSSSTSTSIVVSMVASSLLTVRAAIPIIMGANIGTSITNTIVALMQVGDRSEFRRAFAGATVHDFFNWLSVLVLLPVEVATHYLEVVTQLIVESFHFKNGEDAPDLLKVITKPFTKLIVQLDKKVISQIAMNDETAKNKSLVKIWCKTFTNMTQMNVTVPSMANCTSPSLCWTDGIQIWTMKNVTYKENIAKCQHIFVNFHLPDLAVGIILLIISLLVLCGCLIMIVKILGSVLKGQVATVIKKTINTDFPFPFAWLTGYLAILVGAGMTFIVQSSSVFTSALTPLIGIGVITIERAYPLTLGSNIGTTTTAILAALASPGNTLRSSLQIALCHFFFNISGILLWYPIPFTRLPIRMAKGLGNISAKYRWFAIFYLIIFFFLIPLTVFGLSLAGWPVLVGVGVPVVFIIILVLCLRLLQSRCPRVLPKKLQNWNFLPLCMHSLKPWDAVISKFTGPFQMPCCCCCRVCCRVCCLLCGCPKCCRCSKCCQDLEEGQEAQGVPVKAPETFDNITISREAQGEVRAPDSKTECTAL
Description: as §1, with “the Rhesus SLC34A2 expressing HEK293 engineering” for “OVCAR3”, “(HEK293/Rhesus_SLC34A2)” for “or HEK293 cells expressing human SLC34A2”, “Abs” for “antibodies”

[3] = biological target: T1, human SLC34A2; assay: FACS, RMG-1 cells
Description: Based on the foregoing cell-based binding results, some of the chimeric antibodies were selected for further cell based binding on human SLC34A2 expressing cells using flow cytometry. RMG-1 cells were incubated with the selected chimeric antibodies (from 200 nM, 4 folds dilution, 8 points). After incubation at 4° C. for 60 minutes, the cells were washed with FACS buffer twice, then stained with fluorescent conjugated secondary antibody at 4° C. for 30 minutes. Afterwards the cells were washed twice and analyzed by flow cytometry.

[4] = biological target: T1, human SLC34A2; assay: cell-based or functional assay
[5] = biological target: T3, Cynomolgus SLC34A2 (Cynomolgus, UniProt A0A2K5UHY1 1-690); assay: FACS, cells expressing Cynomolgus SLC34A2
T3 construct: whole, on cells; also called Cyno SLC34A2
T3 sequence: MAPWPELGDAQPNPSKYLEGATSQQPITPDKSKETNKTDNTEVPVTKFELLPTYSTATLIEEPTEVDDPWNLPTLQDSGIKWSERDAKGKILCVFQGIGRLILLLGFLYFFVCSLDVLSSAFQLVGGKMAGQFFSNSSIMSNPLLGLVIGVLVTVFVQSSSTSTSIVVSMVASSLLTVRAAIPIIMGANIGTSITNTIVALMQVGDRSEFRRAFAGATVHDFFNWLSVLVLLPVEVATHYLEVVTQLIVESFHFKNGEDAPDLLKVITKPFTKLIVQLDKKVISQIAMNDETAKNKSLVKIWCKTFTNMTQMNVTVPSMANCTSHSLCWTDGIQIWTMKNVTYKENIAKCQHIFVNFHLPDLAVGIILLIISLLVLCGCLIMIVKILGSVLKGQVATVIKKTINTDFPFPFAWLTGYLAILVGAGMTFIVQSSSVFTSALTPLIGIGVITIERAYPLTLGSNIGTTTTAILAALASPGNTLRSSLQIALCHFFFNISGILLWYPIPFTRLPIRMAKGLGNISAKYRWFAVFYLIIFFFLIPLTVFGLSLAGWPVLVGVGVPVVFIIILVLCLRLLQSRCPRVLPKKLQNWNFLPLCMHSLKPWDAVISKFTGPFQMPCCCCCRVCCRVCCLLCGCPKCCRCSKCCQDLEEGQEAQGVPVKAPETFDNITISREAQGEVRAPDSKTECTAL

[6] = biological target: T1, human SLC34A2; assay: cell-based or functional assay; remark: listed apart in the source
[7] = biological target: T1, human SLC34A2; assay: FACS, OVCAR3 cells
Description: In this example, cell based binding of chimeric antibodies (hIgG1) prepared from the murine antibodies on human SLC34A2 expressing cells were assessed using flow cytometry.
as §1

[8] = biological target: T1, human SLC34A2; assay: FACS, OVCAR3 cells; remark: listed apart in the source

B1: xi87H12B7 hIgG1 (antibody, V domains shown)
VH: QVQLQQPGAEVVRPGASVKMSCKASGYTFTSYIVHWVKQPPGQGLEWIGAIYPGNGDTSYIQKFKGRATLTADKSSSTVYMQLSSLTSEDSAVYYCARGHYYGSAAWFGFWGQGTLVTVSA
VL: DILLTQSPAILSVSPGERVSFSCRASQNIGTSIHWYQQRTNDSPRLLMRYASESVSGIPSRFSGSGSGTDFTLSINSVESEDIADYYCQQSNTWPLTFGAGTKLELK
notes: chimeric, hIgG1
EC50 [1]: 1.62 nM | Top (MFI) [1]: 44900 MFI | EC50 [2]: 2.85 nM | Top (MFI) [2]: 18300 MFI | EC50 [3]: 9.11 nM | Top (MFI) [3]: 9660 MFI | ADCC reporter EC50 [4]: 5.1 nM | ADCC reporter Top (MFI) [4]: 195000 MFI | EC50 [5]: 7.66 nM | Top (MFI) [5]: 4710 MFI | cytotoxicity EC50 [6]: 0.35 nM | cytotoxicity Inhibition % [6]: 82.6% | EC50 [7]: 5.43 nM | Top (MFI) [7]: 27800 MFI

B2: 91C9F1.p1.z1 hIgG1 (antibody, V domains shown)
VH: QVQLVQSGAEVKKPGSSVKVSCKASGFFFTEYIIHWVRQAPGQGLEWMGGIIPNNDVTNYKQNFRGRVTITADESTSTAYMELSSLRSEDTAVYYCARWRNAYYSAMDSWGQGTTVTVSS
VL: DIQMTQSPSSLSASVGDRVTITCTASQDVGTAVAWYQQKPGKVPKLLIYWASTRHTGVPSRFSGSGSGTDFTLTISSLQPEDVATYYCQQYRTSPLTFGGGTKVEIK
notes: humanized hIgG1
EC50 [8]: 3.78 nM | Top (MFI) [8]: 34200 MFI

B4: 91C9F1.p1.z2 hIgG1 (antibody, V domains shown)
VH: QVQLVQSGAEVKKPGSSVKVSCKASGFFFTEYIIHWVRQAPGQGLEWMGGIIPNNDVTNYKQNFRGRVTITADESTSTAYMELSSLRSEDTAVYYCARWRNAYYSAMDSWGQGTTVTVSS
VL: DIQMTQSPSSLSTSVGDRVTITCTASQDVGTAVAWYQQKPGKSPKLLIYWASTRHTGVPERFSGSGSGTDFTLTISSLQPEDVATYFCQQYRTSPLTFGGGTKVEIK
notes: humanized hIgG1
EC50 [8]: 3.32 nM | Top (MFI) [8]: 34500 MFI

B5: 91C9F1.p1.z3 hIgG1 (antibody, V domains shown)
VH: QVQLVQSGAEVKKPGSSVKVSCKASGFFFTEYIIHWVRQAPGQGLEWMGGIIPNNDVTNYKQNFRGRVTITADESTSTAYMELSSLRSEDTAVYYCARWRNAYYSAMDSWGQGTTVTVSS
VL: DIQVTQSPSSLSTSVGDRVTITCTASQDVGTAVAWYQQKPGKSPKLLIYWASTRHTGVPERFTGSGSGTDFTLTISSVQPEDVATYFCQQYRTSPLTFGVGTKVEIK
notes: humanized hIgG1
EC50 [8]: 4.04 nM | Top (MFI) [8]: 35500 MFI

B10: xi94E9B12 hIgG1 (antibody, V domains shown)
VH: QVQLQQPGAELVKPGASVKMSCKASGYTFTSYNMQWVKQTYGQGLEWIGAISPGSGETSYNQNFKVKATLTADKISSTAYMQLSSLTSEDSAVYYCARAARAEGWFAYWGQGTLVTVSA
VL: DIVMTQSHKFMSTSVGDRVSITCKASQDVGHAVVWYQQKPGQFPKLLIYWASTRHAGVPDRFTGSGSGTDFTLTISNVQSEDLADYFCQQFRSIPLTFGSGTKLEIK
notes: chimeric, hIgG1
EC50 [1]: 2.48 nM | Top (MFI) [1]: 106000 MFI | EC50 [2]: 2.38 nM | Top (MFI) [2]: 18700 MFI | EC50 [3]: 9.05 nM | Top (MFI) [3]: 10000 MFI | ADCC reporter EC50 [4]: 3.3 nM | ADCC reporter Top (MFI) [4]: 382000 MFI | EC50 [5]: 2.51 nM | Top (MFI) [5]: 3580 MFI | cytotoxicity EC50 [6]: 0.85 nM | cytotoxicity Inhibition % [6]: 83.6% | EC50 [7]: 11 nM | Top (MFI) [7]: 46200 MFI

Continued by falling EC50 [8], values first:

EC50 [8]: 2.95 nM | Top (MFI) [8]: 36900 MFI
B8: 91C9F1.p1.z5 hIgG1 (antibody, V domains shown)
VH: QVQLVQSGAEVKKPGSSVKVSCKTSGFFFTEYIIHWVRQAPGQGLEWIGGIIPNNDVTNYKQNFRGRVTLTADKSTSTAYMELSSLRSEDTAVYYCARWRNAYYSAMDSWGQGTTVTVSS
VL: DIQMTQSPSSLSASVGDRVTITCTASQDVGTAVAWYQQKPGKVPKLLIYWASTRHTGVPSRFSGSGSGTDFTLTISSLQPEDVATYYCQQYRTSPLTFGGGTKVEIK
notes: humanized hIgG1

EC50 [8]: 2.72 nM | Top (MFI) [8]: 37000 MFI
B3: 91C9F1.p1.z9 hIgG1 (antibody, V domains shown)
VH: QVQLVQSGAEVVKPGSSVKVSCKTSGFFFTEYIIHWVRQSPGQGLEWIGGIIPNNDVTNYKQNFRGRATLTADKSTSTAYMELSSLRSEDTAVYYCARWRNAYYSAMDSWGQGTTVTVSS
VL: DIQMTQSPSSLSASVGDRVTITCTASQDVGTAVAWYQQKPGKVPKLLIYWASTRHTGVPSRFSGSGSGTDFTLTISSLQPEDVATYYCQQYRTSPLTFGGGTKVEIK
notes: humanized hIgG1

EC50 [8]: 2.13 nM | Top (MFI) [8]: 35700 MFI
B6: 91C9F1.p1.z8 hIgG1 (antibody, V domains shown)
VH: QVQLVQSGAEVKKPGSSVKVSCKTSGFFFTEYIIHWVRQAPGQGLEWIGGIIPNNDVTNYKQNFRGRVTLTADKSTSTAYMELSSLRSEDTAVYYCARWRNAYYSAMDSWGQGTTVTVSS
VL: DIVVTQSPSSLSTSVGDRVTITCTASQDVGTAVAWYQQKPGKSPKLLIYWASTRHTGVPERFTGSGSGTDFTLTISSVQPEDVATYFCQQYRTSPLTFGVGTKLELK
notes: humanized hIgG1

EC50 [8]: 1.77 nM | Top (MFI) [8]: 34500 MFI
B7: 91C9F1.p1.z12 hIgG1 (antibody, V domains shown)
VH: QVQLVQSGAEVVKPGSSVKVSCKTSGFFFTEYIIHWVRQSPGQGLEWIGGIIPNNDVTNYKQNFRGRATLTADKSTSTAYMELSSLRSEDTAVYYCARWRNAYYSAMDSWGQGTTVTVSS
VL: DIVVTQSPSSLSTSVGDRVTITCTASQDVGTAVAWYQQKPGKSPKLLIYWASTRHTGVPERFTGSGSGTDFTLTISSVQPEDVATYFCQQYRTSPLTFGVGTKLELK
notes: humanized hIgG1

EC50 [8]: 1.41 nM | Top (MFI) [8]: 31000 MFI
B9: 91C9F1.p1.z11 hIgG1 (antibody, V domains shown)
VH: QVQLVQSGAEVVKPGSSVKVSCKTSGFFFTEYIIHWVRQSPGQGLEWIGGIIPNNDVTNYKQNFRGRATLTADKSTSTAYMELSSLRSEDTAVYYCARWRNAYYSAMDSWGQGTTVTVSS
VL: DIQVTQSPSSLSTSVGDRVTITCTASQDVGTAVAWYQQKPGKSPKLLIYWASTRHTGVPERFTGSGSGTDFTLTISSVQPEDVATYFCQQYRTSPLTFGVGTKVEIK
notes: humanized hIgG1
